In article PMC10771423, “Discovery and biochemical characterization of thermostable glycerol oxidases” (Applied Microbiology and Biotechnology, 2024) one finds Km, kcat and kcat/Km data, which are given here for three proteins.

Substrate in data set [1]: OC[C@@H](O)[C@H](O)[C@@H](O)CO
The data set can be described thus: purified protein. Particulars: 50 mM KPi pH 7.5, 25 °C, O2 as co-substrate.

Substrate in data set [2]: OCC(O)CO
The data set can be described thus: purified protein. Particulars: 50 mM KPi pH 7.5, 25 °C, O2 as co-substrate.

B1: AldOAb (Actinomycetota bacterium) (protein)
chain: MTMRSTNWAGNVVYRASELHRPASLDELRRVVARSPKVRVLGSGHSFNEITDTEGALVSLEALPPEVEIDRATGTARVAAGLRYGELSARLHAAGYALPNLASLPHICVAGACATGTHGSGDGIGGLAGSVTAVELVTADGDLVTLSRDADPDRFPGAVVSLGALGAVVTMTLRLEPAFQVRQRVYENLPAEALDDHFDEIMASGYSVSLFTDWRGDRIRQVWVKERVGDPAAGGEEREPVVAALGATPADGPRHPVPGMPAANCTEQLGVPGPWHERLPHFRLGFTPSSGDELQAEYLLPRRHAVAAFHALAGIADRIAPVLHISEIRTVAADDLWLSPFHGRNTVAFHFTWKPDEAAVREVLSLMEEVLAPFEPRPHWGKLFAIPPKVLRSRYDRIGDFRALARELDPSGKFANAFVAHHVLDDE
With B1, in data set [1], the Michaelis constant (Km) (commonly the concentration of substrate that gives half-maximal velocity) is 30 µM; the catalytic constant (kcat) – broadly, the number of substrate molecules converted per active site and unit of time at saturation – came out at 4.2 s⁻¹; the kcat/Km (in general, the second-order rate constant that governs catalysis at low substrate concentration) was found to be 140000 M⁻¹ s⁻¹.

B2: AldOTf (Thermopolyspora flexuosa) (protein)
chain: MRSTNWAGNVVFRASELHRPASIDELRRVVARSPKVRVLGSGHSFNEITDTDGTLVSLDALPPEVEIDGATGTARISAGLRYGELSRRLHAAGHALANLASLPHICVAGACATGTHGSGDGNGGLATSVTAVELVTGEGDLVTLSRDADPDRFPGAVVSLGALGVVVAMTLRLVPAFEVRQRVYENLPAEALAGHFDEIMASGYSVSLFTDWRGDRISQVWVKERVDASSGAPGDEREPVVAALGATPADGPRHPVPGMPAVNCTEQLGVPGPWFERLPHFRPEFTPSSGDELQAEYLLPRRHAVAAFQALAGIADRIAPVLHISEIRTVAADDLWLSPFHGRDTVAFHFTWKRDEAAVLDVLGLMEDVLAPFEPRPHWGKLFTIPPKVLHSRYDRMADFRALARELDPAGKFANAFVARHVLEIE
B2: in data set [2], the Michaelis constant (Km) turned out to be 50000 µM, the kcat turned out to be 1.6 s⁻¹ and the catalytic efficiency (kcat/Km) was found to be 32 M⁻¹ s⁻¹. Besides, in data set [1], the Michaelis constant (Km) was found to be 30 µM, the turnover number (kcat) was 3.1 s⁻¹ and the kcat/Km was found to be 100000 M⁻¹ s⁻¹.

B3: AldOCh (Thermostaphylospora chromogena) (protein)
chain: MSPTLTNWAGNIVFRAGEVHRPETLEELRTLVTRADKVRVLGSGHSFNDIADSPGVLVSPSRLPRELELDTAAGAVRVSAGIRYAELSAWLHERGFALHNLASLPHISVAGSCATATHGSGDGNGNLATAVRALTLVTAEGDLVDLDRERDGDRFRGAVVGLGALGVVVSMTLDVEPTFEVRQRVYEDLPLEAACDHFSDIMGCAYSVSMFSDWTSSRINQVWVKERVDEDGSRPPGPASFGAKPADGPRHPIARMPAGNCTEQLGVPGPWFARLPHFRPEFTPSGGQERQAEYLVPRRHAVAALRELAAIGDRIAPVLQISEIRTIAADDLWLSPCQGRDTVGFHFTLIPDTAAVLPVLELIEERLAPFEARPHWGKLFTTPPAVLRSRYDRLPDFQALARDLDPGGKFANEFISRNLLDA
B3: in data set [1], the Michaelis constant (Km) came to 40 µM, the kcat was 3.5 s⁻¹ and the specificity constant (kcat/Km) is 120000 M⁻¹ s⁻¹.
